Results: PMC10878513, “SRPK2 Mediates HBV Core Protein Phosphorylation and Capsid Assembly via Docking Interaction” (PLOS Pathogens, 2024)
Residue numbers refer to the chain shown, from its start. In names and notes the source's numbering stands.

Key:
[1] = molecular target: the molecule itself; assay: SEC; without ATP; proteins in disassembly buffer (1.5 M GuHCl), GuHCl removed by dialysis against reassembly buffer; analytical Superdex 200 10/300 GL; peak fractions by SDS-PAGE
[2] = molecular target: T1, His-tagged SRPK2WT (full-length SRPK2) (UniProt P78362 1-688); assay: MST; 200 nM N-terminally His-tagged SRPK1/2 labelled with RED-tris-NTA as target; GST-CpY132A as ligand in 2-fold serial dilution from 20 μM to 0.61 nM; room temperature; Monolith NT.115, MST power 40%; settings: both partners purified
T1 construct: serine-arginine protein kinase 2 (SRPK2), full length, wild type; Cloned in pET-15b; Labelled on the His tag with RED-tris-NTA for MST; also called His-SRPK2WT; wild-type SRPK2; source: E. coli BL21(DE3)pLysS, purified (Ni-NTA, SEC); not shown: His tag, N-terminal, kept

His-tagged SRPK1WT = molecular target: T2, His-tagged SRPK1WT (UniProt Q96SB4 1-655); assay: as above; settings: both partners purified
T2 construct: serine-arginine protein kinase 1 (SRPK1), wild type; Labelled on the His tag with RED-tris-NTA for MST; also called wild-type SRPK1; source: recombinant, purified; not shown: His tag, N-terminal, kept

[3] = molecular target: the molecule itself; assay: SEC; SRPK2ΔS1/CpWT complex supplemented with 5 mM MgCl2 and 0.1 mM ATP; analytical Superdex 200 10/300 GL; void-volume peak also imaged by negative-stain EM

T2 sequence (Q96SB4 whole entry): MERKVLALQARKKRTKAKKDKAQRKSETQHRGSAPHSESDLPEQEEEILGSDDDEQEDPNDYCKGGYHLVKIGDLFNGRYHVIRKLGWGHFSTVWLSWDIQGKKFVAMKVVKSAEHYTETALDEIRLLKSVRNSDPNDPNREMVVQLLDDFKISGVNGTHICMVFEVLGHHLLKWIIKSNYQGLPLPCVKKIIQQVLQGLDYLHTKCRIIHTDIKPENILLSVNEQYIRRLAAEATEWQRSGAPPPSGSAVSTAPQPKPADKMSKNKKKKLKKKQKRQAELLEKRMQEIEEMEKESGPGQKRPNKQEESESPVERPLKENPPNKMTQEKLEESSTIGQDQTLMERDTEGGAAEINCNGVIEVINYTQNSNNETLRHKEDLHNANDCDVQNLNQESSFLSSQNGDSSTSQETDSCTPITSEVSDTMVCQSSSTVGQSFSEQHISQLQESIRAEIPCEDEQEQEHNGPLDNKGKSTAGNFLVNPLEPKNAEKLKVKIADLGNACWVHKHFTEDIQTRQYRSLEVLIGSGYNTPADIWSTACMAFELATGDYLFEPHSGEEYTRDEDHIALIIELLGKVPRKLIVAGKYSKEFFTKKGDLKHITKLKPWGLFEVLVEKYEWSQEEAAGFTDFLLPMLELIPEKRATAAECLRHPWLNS
T1 sequence (P78362 whole entry): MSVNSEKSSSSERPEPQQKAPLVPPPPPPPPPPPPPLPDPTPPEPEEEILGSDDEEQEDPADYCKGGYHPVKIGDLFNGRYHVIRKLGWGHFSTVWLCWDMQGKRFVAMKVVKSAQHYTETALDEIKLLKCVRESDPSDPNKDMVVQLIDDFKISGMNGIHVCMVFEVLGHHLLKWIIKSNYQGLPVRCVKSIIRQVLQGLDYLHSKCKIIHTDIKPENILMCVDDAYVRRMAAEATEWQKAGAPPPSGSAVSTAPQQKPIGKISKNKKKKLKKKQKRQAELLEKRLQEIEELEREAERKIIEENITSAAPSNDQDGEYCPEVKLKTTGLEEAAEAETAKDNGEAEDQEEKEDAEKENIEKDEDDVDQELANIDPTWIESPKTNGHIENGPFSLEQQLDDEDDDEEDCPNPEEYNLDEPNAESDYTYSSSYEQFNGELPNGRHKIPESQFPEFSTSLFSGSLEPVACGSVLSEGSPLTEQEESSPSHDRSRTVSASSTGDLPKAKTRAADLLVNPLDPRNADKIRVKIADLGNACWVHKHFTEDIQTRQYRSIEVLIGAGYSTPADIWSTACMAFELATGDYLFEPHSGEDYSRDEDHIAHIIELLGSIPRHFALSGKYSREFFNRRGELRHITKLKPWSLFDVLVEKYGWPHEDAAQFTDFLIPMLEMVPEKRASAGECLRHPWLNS

B1: His-tagged CpWT (wild-type hepatitis B core protein) (natural protein)
chain: MDIDPYKEFGATVELLSFLPSDFFPSVRDLLDTASALYREALESPEHCSPHHTALRQAILCWGELMTLATWVGNNLEDPASRDLVVNYVNTNVGLKIRQLLWFHISCLTFGRETVLEYLVSFGVWIRTPPAYRPPNAPILSTLPETTVVRRRDRGRSPRRRTPSPRRRRSPSPRRRRSQSRESQC
notes: Hepatitis B virus core protein (Cp), subtype adw2, full length, wild type; Kept as a dimer in GuHCl; assembles into capsids (about 35 nm, typical of T = 4) when GuHCl or urea is dialysed away; The His tag is seen as extra density at the 3-fold vertices of the capsid maps; Cloned in pET-15b; also called His-CpWT; CpWT dimer; not shown: His tag, N-terminal, kept
- binding result [1]: binds

B2: GST-tagged CpY132A (hepatitis B core protein with the mutation Y132A) (natural protein)
chain: B1 chain with Y132A
notes: Hepatitis B virus core protein (Cp), subtype adw2, full length (assembly domain 1-149, ARD 150-185); Cloned in pGEX-4T-2; also called GST–CpY132A; GST-CpY132A; source: E. coli BL21(DE3)pLysS, purified (glutathione resin); not shown: GST, N-terminal, kept
- Kd [2]: 101 nM
- Kd (His-tagged SRPK1WT): 83.6 nM

B3: CpWT phosphorylated by SRPK2ΔS1 (after addition of ATP/Mg2+) (natural protein)
chain: B1 chain
modifications: phosphorylated by SRPK2ΔS1 with ATP/Mg2+; sites and extent not stated for this sample
notes: Hepatitis B virus core protein (Cp), subtype adw2, full length, wild type; also called phosphorylated Cp; capsid formed after the addition of ATP/Mg2+; source: E. coli BL21(DE3)pLysS, purified; SRPK2ΔS1/CpWT complex supplemented with 5 mM MgCl2 and 0.1 mM ATP
- binding result [3]: binds
